# Laboratory results taken from US20260015399A1 (Boehringer Ingelheim, published 2026).
# *1 amine or outer side, *2 acyl side, *3 side chain or, on linkers, in order; H or OH if unused. Side-chain parts run from the residue outwards. The star is where a group is joined. C18 diacid = O=C(O)CCCCCCCCCCCCCCCCC(=O)*; γGlu = O=C(O)[C@H](CCC(=O)[*:2])N[*:1]; Isovaleryl = CC(C)CC(=O)*; Ahx = NCCCCCC(=O)O
# T1: human NPY2 receptor (human, UniProt P49146 1-381)
# T1 construct: whole, on cells; also called hNPY2-R; hNPY2R
# T1 sequence (looked up): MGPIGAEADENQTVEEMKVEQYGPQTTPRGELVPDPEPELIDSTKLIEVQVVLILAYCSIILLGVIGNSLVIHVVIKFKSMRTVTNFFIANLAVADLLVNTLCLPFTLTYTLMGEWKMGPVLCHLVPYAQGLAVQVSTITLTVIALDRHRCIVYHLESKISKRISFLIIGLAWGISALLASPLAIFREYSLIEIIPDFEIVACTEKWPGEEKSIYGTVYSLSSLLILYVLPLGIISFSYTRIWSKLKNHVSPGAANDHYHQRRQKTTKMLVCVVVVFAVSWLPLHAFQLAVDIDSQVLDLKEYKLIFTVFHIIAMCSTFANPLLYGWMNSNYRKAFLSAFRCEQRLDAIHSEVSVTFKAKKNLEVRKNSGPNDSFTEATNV
# Target: T1, human NPY2 receptor
# Assay: RLB: displacement of 125I-PYY(1-36) from hNPY2R membranes
row,Binder,Ki
1,Isovaleryl-APEK([Ahx-γGlu-C18 diacid])PEEAASPEELQRYYVALRHYYNWLTRQRY-NH2 (SMILES CC(C)CC(=O)N[C@@H](C)C(=O)N1CCC[C@H]1C(=O)N[C@@H](CCC(=O)O)C(=O)N[C@@H](CCCCNC(=O)CCCCCNC(=O)CC[C@H](NC(=O)CCCCCCCCCCCCCCCCC(=O)O)C(=O)O)C(=O)N1CCC[C@H]1C(=O)N[C@@H](CCC(=O)O)C(=O)N[C@@H](CCC(=O)O)C(=O)N[C@@H](C)C(=O)N[C@@H](C)C(=O)N[C@@H](CO)C(=O)N1CCC[C@H]1C(=O)N[C@@H](CCC(=O)O)C(=O)N[C@@H](CCC(=O)O)C(=O)N[C@@H](CC(C)C)C(=O)N[C@@H](CCC(N)=O)C(=O)N[C@@H](CCCNC(=N)N)C(=O)N[C@@H](Cc1ccc(O)cc1)C(=O)N[C@@H](Cc1ccc(O)cc1)C(=O)N[C@H](C(=O)N[C@@H](C)C(=O)N[C@@H](CC(C)C)C(=O)N[C@@H](CCCNC(=N)N)C(=O)N[C@@H](Cc1c[nH]cn1)C(=O)N[C@@H](Cc1ccc(O)cc1)C(=O)N[C@@H](Cc1ccc(O)cc1)C(=O)N[C@@H](CC(N)=O)C(=O)N[C@@H](Cc1c[nH]c2ccccc12)C(=O)N[C@@H](CC(C)C)C(=O)N[C@H](C(=O)N[C@@H](CCCNC(=N)N)C(=O)N[C@@H](CCC(N)=O)C(=O)N[C@@H](CCCNC(=N)N)C(=O)N[C@@H](Cc1ccc(O)cc1)C(N)=O)[C@@H](C)O)C(C)C) [Compound 73],2.16 nM
2,Isovaleryl-APEK([Ahx-γGlu-C18 diacid])PEEDAQPEEIQRYYVSLRHYYNWLTRQRY-NH2 (SMILES CC[C@H](C)[C@H](NC(=O)[C@H](CCC(=O)O)NC(=O)[C@H](CCC(=O)O)NC(=O)[C@@H]1CCCN1C(=O)[C@H](CCC(N)=O)NC(=O)[C@H](C)NC(=O)[C@H](CC(=O)O)NC(=O)[C@H](CCC(=O)O)NC(=O)[C@H](CCC(=O)O)NC(=O)[C@@H]1CCCN1C(=O)[C@H](CCCCNC(=O)CCCCCNC(=O)CC[C@H](NC(=O)CCCCCCCCCCCCCCCCC(=O)O)C(=O)O)NC(=O)[C@H](CCC(=O)O)NC(=O)[C@@H]1CCCN1C(=O)[C@H](C)NC(=O)CC(C)C)C(=O)N[C@@H](CCC(N)=O)C(=O)N[C@@H](CCCNC(=N)N)C(=O)N[C@@H](Cc1ccc(O)cc1)C(=O)N[C@@H](Cc1ccc(O)cc1)C(=O)N[C@H](C(=O)N[C@@H](CO)C(=O)N[C@@H](CC(C)C)C(=O)N[C@@H](CCCNC(=N)N)C(=O)N[C@@H](Cc1c[nH]cn1)C(=O)N[C@@H](Cc1ccc(O)cc1)C(=O)N[C@@H](Cc1ccc(O)cc1)C(=O)N[C@@H](CC(N)=O)C(=O)N[C@@H](Cc1c[nH]c2ccccc12)C(=O)N[C@@H](CC(C)C)C(=O)N[C@H](C(=O)N[C@@H](CCCNC(=N)N)C(=O)N[C@@H](CCC(N)=O)C(=O)N[C@@H](CCCNC(=N)N)C(=O)N[C@@H](Cc1ccc(O)cc1)C(N)=O)[C@@H](C)O)C(C)C) [Compound 81],2.65 nM
3,Isovaleryl-APEK([Ahx-γGlu-C18 diacid])PEEDASEAELQRYYVSLRHYYNWLTRQRY-NH2 (SMILES CC(C)CC(=O)N[C@@H](C)C(=O)N1CCC[C@H]1C(=O)N[C@@H](CCC(=O)O)C(=O)N[C@@H](CCCCNC(=O)CCCCCNC(=O)CC[C@H](NC(=O)CCCCCCCCCCCCCCCCC(=O)O)C(=O)O)C(=O)N1CCC[C@H]1C(=O)N[C@@H](CCC(=O)O)C(=O)N[C@@H](CCC(=O)O)C(=O)N[C@@H](CC(=O)O)C(=O)N[C@@H](C)C(=O)N[C@@H](CO)C(=O)N[C@@H](CCC(=O)O)C(=O)N[C@@H](C)C(=O)N[C@@H](CCC(=O)O)C(=O)N[C@@H](CC(C)C)C(=O)N[C@@H](CCC(N)=O)C(=O)N[C@@H](CCCNC(=N)N)C(=O)N[C@@H](Cc1ccc(O)cc1)C(=O)N[C@@H](Cc1ccc(O)cc1)C(=O)N[C@H](C(=O)N[C@@H](CO)C(=O)N[C@@H](CC(C)C)C(=O)N[C@@H](CCCNC(=N)N)C(=O)N[C@@H](Cc1c[nH]cn1)C(=O)N[C@@H](Cc1ccc(O)cc1)C(=O)N[C@@H](Cc1ccc(O)cc1)C(=O)N[C@@H](CC(N)=O)C(=O)N[C@@H](Cc1c[nH]c2ccccc12)C(=O)N[C@@H](CC(C)C)C(=O)N[C@H](C(=O)N[C@@H](CCCNC(=N)N)C(=O)N[C@@H](CCC(N)=O)C(=O)N[C@@H](CCCNC(=N)N)C(=O)N[C@@H](Cc1ccc(O)cc1)C(N)=O)[C@@H](C)O)C(C)C) [Compound 80],4.62 nM
4,Isovaleryl-APAK([Ahx-γGlu-C18 diacid])PEEDASPEELQRYYVSLRHYQNWLTRQRY-NH2 (SMILES CC(C)CC(=O)N[C@@H](C)C(=O)N1CCC[C@H]1C(=O)N[C@@H](C)C(=O)N[C@@H](CCCCNC(=O)CCCCCNC(=O)CC[C@H](NC(=O)CCCCCCCCCCCCCCCCC(=O)O)C(=O)O)C(=O)N1CCC[C@H]1C(=O)N[C@@H](CCC(=O)O)C(=O)N[C@@H](CCC(=O)O)C(=O)N[C@@H](CC(=O)O)C(=O)N[C@@H](C)C(=O)N[C@@H](CO)C(=O)N1CCC[C@H]1C(=O)N[C@@H](CCC(=O)O)C(=O)N[C@@H](CCC(=O)O)C(=O)N[C@@H](CC(C)C)C(=O)N[C@@H](CCC(N)=O)C(=O)N[C@@H](CCCNC(=N)N)C(=O)N[C@@H](Cc1ccc(O)cc1)C(=O)N[C@@H](Cc1ccc(O)cc1)C(=O)N[C@H](C(=O)N[C@@H](CO)C(=O)N[C@@H](CC(C)C)C(=O)N[C@@H](CCCNC(=N)N)C(=O)N[C@@H](Cc1c[nH]cn1)C(=O)N[C@@H](Cc1ccc(O)cc1)C(=O)N[C@@H](CCC(N)=O)C(=O)N[C@@H](CC(N)=O)C(=O)N[C@@H](Cc1c[nH]c2ccccc12)C(=O)N[C@@H](CC(C)C)C(=O)N[C@H](C(=O)N[C@@H](CCCNC(=N)N)C(=O)N[C@@H](CCC(N)=O)C(=O)N[C@@H](CCCNC(=N)N)C(=O)N[C@@H](Cc1ccc(O)cc1)C(N)=O)[C@@H](C)O)C(C)C) [Compound 77],9.73 nM

# Binders with a lower Ki, results first:
row,Ki,Binder
1,0.58 nM,Isovaleryl-APAK([Ahx-γGlu-C18 diacid])PPEDASPEEIQRYYVSLRHYYNWLTRQRY-NH2 (SMILES CC[C@H](C)[C@H](NC(=O)[C@H](CCC(=O)O)NC(=O)[C@H](CCC(=O)O)NC(=O)[C@@H]1CCCN1C(=O)[C@H](CO)NC(=O)[C@H](C)NC(=O)[C@H](CC(=O)O)NC(=O)[C@H](CCC(=O)O)NC(=O)[C@@H]1CCCN1C(=O)[C@@H]1CCCN1C(=O)[C@H](CCCCNC(=O)CCCCCNC(=O)CC[C@H](NC(=O)CCCCCCCCCCCCCCCCC(=O)O)C(=O)O)NC(=O)[C@H](C)NC(=O)[C@@H]1CCCN1C(=O)[C@H](C)NC(=O)CC(C)C)C(=O)N[C@@H](CCC(N)=O)C(=O)N[C@@H](CCCNC(=N)N)C(=O)N[C@@H](Cc1ccc(O)cc1)C(=O)N[C@@H](Cc1ccc(O)cc1)C(=O)N[C@H](C(=O)N[C@@H](CO)C(=O)N[C@@H](CC(C)C)C(=O)N[C@@H](CCCNC(=N)N)C(=O)N[C@@H](Cc1c[nH]cn1)C(=O)N[C@@H](Cc1ccc(O)cc1)C(=O)N[C@@H](Cc1ccc(O)cc1)C(=O)N[C@@H](CC(N)=O)C(=O)N[C@@H](Cc1c[nH]c2ccccc12)C(=O)N[C@@H](CC(C)C)C(=O)N[C@H](C(=O)N[C@@H](CCCNC(=N)N)C(=O)N[C@@H](CCC(N)=O)C(=O)N[C@@H](CCCNC(=N)N)C(=O)N[C@@H](Cc1ccc(O)cc1)C(N)=O)[C@@H](C)O)C(C)C) [Compound 82]
2,1.8 nM,Isovaleryl-APAK([Ahx-γGlu-C18 diacid])PEEDASPEELQRYYVSLRHYYQWLTRQRY-NH2 (SMILES CC(C)CC(=O)N[C@@H](C)C(=O)N1CCC[C@H]1C(=O)N[C@@H](C)C(=O)N[C@@H](CCCCNC(=O)CCCCCNC(=O)CC[C@H](NC(=O)CCCCCCCCCCCCCCCCC(=O)O)C(=O)O)C(=O)N1CCC[C@H]1C(=O)N[C@@H](CCC(=O)O)C(=O)N[C@@H](CCC(=O)O)C(=O)N[C@@H](CC(=O)O)C(=O)N[C@@H](C)C(=O)N[C@@H](CO)C(=O)N1CCC[C@H]1C(=O)N[C@@H](CCC(=O)O)C(=O)N[C@@H](CCC(=O)O)C(=O)N[C@@H](CC(C)C)C(=O)N[C@@H](CCC(N)=O)C(=O)N[C@@H](CCCNC(=N)N)C(=O)N[C@@H](Cc1ccc(O)cc1)C(=O)N[C@@H](Cc1ccc(O)cc1)C(=O)N[C@H](C(=O)N[C@@H](CO)C(=O)N[C@@H](CC(C)C)C(=O)N[C@@H](CCCNC(=N)N)C(=O)N[C@@H](Cc1c[nH]cn1)C(=O)N[C@@H](Cc1ccc(O)cc1)C(=O)N[C@@H](Cc1ccc(O)cc1)C(=O)N[C@@H](CCC(N)=O)C(=O)N[C@@H](Cc1c[nH]c2ccccc12)C(=O)N[C@@H](CC(C)C)C(=O)N[C@H](C(=O)N[C@@H](CCCNC(=N)N)C(=O)N[C@@H](CCC(N)=O)C(=O)N[C@@H](CCCNC(=N)N)C(=O)N[C@@H](Cc1ccc(O)cc1)C(N)=O)[C@@H](C)O)C(C)C) [Compound 78]
